Test results published in patent US20240342244A1, “Isthmin Protein Therapeutics for the Treatment of Non-Alcoholic Fatty Liver Disease” (The Board of Trustees of the Leland Stanford Junior …, priority 2021, published 2024).

Assays:
AML12 hepatocytes [1] = assay: Protein synthesis assay (3H-leucine incorporation into proteins) in AML12 hepatocytes; assay type: cell-based, mouse; conditions: 24 h
Method: Protein synthesis Assay. AML12 hepatocytes were washed twice with warm PBS and starved in serum-free media overnight. Indicated concentrations of insulin with or without ISM1 and 0.25 uCi of [3H]-Leucine (#NET460250UC, PerkinElmer) were added at the same time. After a 24 h incubation, cells were washed three times with ice cold PBS and lysed in RIPA buffer containing protease inhibitor cocktail (Roche). After 15 min centrifugation at 14000×g, supernatants were transferred to new tubes. Trichloroacetic acid was added to the protein extracts at a final concentration of 10% and incubated on ice for 1 h. After a 15 min centrifugation at 14000×g, pellets were washed with cold acetone, diluted in 10M NaOH and transferred to scintillation vials. The radioactivity was measured by liquid scintillation counting.

human SGBS adipocytes = assay: 2-deoxy-3H-glucose uptake in human SGBS adipocytes; assay type: cell-based
Method: Mouse and human pre-adipocytes culture and differentiation. Inguinal fat pads from 4-8 week old C57BL/6J male and female mice were dissected and mechanically digested for 10 min using spring scissors. Digested tissues were incubated in WAT isolation buffer (10 ml PBS, 2.4 U/ml dispase II (#04942078001, Roche), 10 mg/ml collagenase D (#11088858001, Roche) at 37° C. for 45 min. 20 mL growth media was added and the tissue suspension was filtered through a 100-μm cell strainer and centrifuged at 600×g for 5 min. The cell pellets were resuspended in 20 mL growth media, filtered through a 40-μm cell strainer, centrifuged at 600×g for 5 min, resuspended in 10 mL growth media, and plated in 10-cm collagen-coated dishes. The cells were cultured in growth media (DMEM/F-12 Glutamax, Thermo Fisher Scientific #10565018) supplemented with 10% fetal bovine serum. Two days post-confluency, differentiation was induced with growth media containing 1 μM rosiglitazone, 0.5 mM isobutylmethylxanthine, 1 μM dexamethasone, 5 μg/mL insulin. After two days, cells were re-fed with growth media containing 1 μM rosiglitazone and 5 μg/mL insulin. Cells were fully differentiated after 6-8 days. For ISM1 knockdown or overexpression in primary adipocytes using adenovirus, 500 μL crude virus was mixed with 500 μL fresh growth media containing 1 μM rosiglitazone and 5 μg/mL insulin was added to each well at day 2 of differentiation. At day 4, virus-containing media was removed and 500 μL fresh growth media without stimulators was added to each well. SGBS cells were differentiated as described previously (Fischer-Posovszky et al., 2008; Wabitsch et al., 2001). Briefly, cells were cultured in growth media DMEM/F-12 Glutamax, supplemented with 10% fetal bovine serum, 33 uM biotin, and 17 uM pantothenate. Two days post confluency, differentiation was induced with serum-free DMEM/F12 media containing 33 uM biotin, 17 uM pantothenate, 0.01 mg/ml transferrin, 20 nM insulin, 100 nM cortisol, 0.2 nM triiodothyronine, 25 nM dexamethasone, 0.25 mM isobutyl methylxanthine, and 2 μM rosiglitazone. After four days, cells were re-fed with growth media containing 0.01 mg/ml transferrin 20 nM insulin, 100 nM cortisol, 0.2 nM triiodothyronine. Cells were fully differentiated after day 8-10.
Glucose uptake. Glucose uptake was performed as previously described (You et al., 2017). Briefly, 2-Deoxy-d-[2,6-3H]-glucose was purchased from PerkinElmer NEN radiochemicals. Fully differentiated adipocytes were washed with KRH buffer and starved in 0.5% BSA in KRH buffer for 4 h. Indicated concentrations of insulin or ISM1 were added at indicated time points. Cells were treated with a mixture of 500 μM 2-deoxy-D-glucose and 1.71 μCimL^−1 2-Deoxy-D-[1,2-3H (N)]-glucose for another 10 min followed by three washes using ice cold KRH buffer containing 200 mM glucose. The passive glucose uptake in the presence of 50 uM CytoB was less than 12% of the total glucose uptake. Cells were solubilized in 1% SDS and radioactivity was measured by liquid scintillation counting.

[2] = test system: human primary skeletal muscle cells; assay: 2-deoxy-3H-glucose uptake in human primary skeletal muscle cells; assay type: cell-based; conditions: for induction of glucose uptake compared with control cells: 1 h
AML12 hepatocytes [3] = assay: Lipogenesis assay (3H-acetate incorporation into lipids) in AML12 hepatocytes; assay type: cell-based, mouse; conditions: 24 h
Method: Lipogenesis Assay. Primary hepatocytes or AML12 hepatocytes were washed twice with warm PBS and starved in serum-free DMEM overnight. Indicated concentrations of insulin with or without ISM1 were added at the same time. After 24 h, a mixture of 10 μM cold acetate and 2 μCi [3H]-Acetate (#NET003H005MC, PerkinElmer) was added to each well and cells were incubated for another 4 hr. Cells were washed with PBS twice and lysed using 0.1 N hydrogen chloride. Lipids were extracted by 2:1 chloroform-methanol (v/v). After centrifugation at 3000×g for 10 min, the lower phase was transferred to scintillation vials and radioactivity was measured by liquid scintillation counting.

pTyr = assay: Western blot of pTyr levels; assay type: cell-based; conditions: 100 nM; 2 minutes
Method: Western blots and molecular analyses. For western blotting, homogenized tissues or whole-cell lysates, samples were lysed in RIPA buffer containing protease inhibitor cocktail (Roche) and phosphatase inhibitor cocktail (Roche). Cell lysates were centrifuged at 14,000×g for 15 min and supernatants were prepared in 4×LDS Sample Buffer (Invitrogen) and separated by SDS-PAGE and transferred to Immobilon 0.45 μm membranes (Millipore). For Western blotting of plasma samples, 1 μl of plasma was prepared in 2× sample buffer (Invitrogen) with reducing agent, boiled, and analyzed using Western blot against indicated antibody. Protein kinase array (R&D systems ARY003B) was performed according to the manufacturers' description. All antibodies used in this paper are described in STAR methods.

[4] = Pharmacokinetic measurement of ISM1 blood levels (anti-his ELISA, western blot); assay type: in vivo, mouse; conditions: mice
Method: Pharmacokinetic measurements of ISM1 blood levels following ISM1 administration. An anti-his tag ELISA was performed to measure ISM1-his concentrations in blood. Recombinant ISM1 protein was administered at 10 mg/kg I.V. in a total volume of 100 ul. Blood was collected and centrifuged at 6000×g for 10 minutes at room temperature to collect serum. Blood levels were measured using the HisProbe-HRP Conjugate according to the manufacturer's instructions (Thermo #15165). Briefly, samples were prepared by diluting serum in coating buffer at 1:100 ratio and added to wells for overnight incubation at 4° C. Nonspecific binding was blocked by adding blocking buffer and incubating for 30 min at 37° C. The plate was washed three times with wash buffer. HisProbe-HRP (Thermo, #15165) working solution was added to each well. After 15 min incubation at room temperature, the plate was washed four times with wash buffer, followed by adding substrate (Thermo, #34022). After 10 min, 1N sulfuric acid was added to stop the reaction. Absorbance was measured at 450 nm.

B1: ISM1: recombinant mouse ISM1 protein with a C-terminal myc-his tag generated in mammalian HEK 293 Expi cells (protein, UniProt A2ATD1 30-454, looked up)
Isthmin-1: SDRQDAAAGNNNLNLESDSTSETSFPLSKEAPEEHQVVHQPFPRQRFPPETGHPSLQRDGPRSFLLDLPNFPDLSKADINGQNPNIQVTIEVVDGPDSEAEKDQHPENKPSWSLPAPDWRAWWQRSLSLARTNSGDQDDKYDSTSDDSNFLSVPRGWDRPAPGHRTFETKEQPEYDSTDGEGDWSLWSVCSVTCGNGNQKRTRSCGYACIATESRTCDRPNCPGIEDTFRTAATEVSLLAGSEEFNATKLFEVDMDSCERWMSCKSEFLKKYMHKVINDLPSCPCSYPTEVAYSTADIFDRIKRKDFRWKDASGPKEKLEIYKPTARYCIRSMLSLESTTLAAQHCCYGDNMQLITRGKGAGTPNLISTEFSAELHYKVDVLPWIICKGDWSRYNEARPPNNGQKCTESPSDEDYIKQFQEAREY
modifications: C-terminal myc-His tag
notes: recombinant mouse ISM1 protein with a C-terminal myc-his tag generated in mammalian HEK 293 Expi cells
AML12 hepatocytes [1]; 100 nM ISM1 and 50 nM insulin vs 50 nM insulin alone
  lipid synthesis versus protein synthesis, side-by-side: suppresses lipid synthesis in favor of protein synthesis
AML12 hepatocytes [1]; combined chronic ISM1 and insulin (50 nM) treatment
  induction of protein synthesis (H3-leucine incorporation): 2.9 fold
Human SGBS adipocytes; SGBS cells
  effect on glucose uptake relative to that of insulin: 50-100%
Human SGBS adipocytes; [3H]-2-deoxy-glucose, starting from 20 nM, 30 minutes
  increase in glucose uptake: 1.5 fold
Human SGBS adipocytes; doses ranging from 10 nM to 200 nM
  concentration from which glucose uptake is increased: 20 nM
[2]; 50 nM
  induction of glucose uptake compared with control cells: 5 fold
[2]; 200 nM
  induction of glucose uptake compared with control cells: 7 fold
[2]; human skeletal muscle cells
  effect on glucose uptake relative to that of insulin: 70%
AML12 hepatocytes [3]; 50 nM ISM1 in presence of 200 nM insulin
  lipogenesis at supraphysiological insulin: sufficient to reduce lipogenesis
AML12 hepatocytes [3]; 50 and 100 nM ISM1 with 50 nM insulin
  insulin-induced lipogenesis: reverse the insulin-induced lipogenesis dose-dependently
pTyr
  tyrosine phosphorylation of proteins: induces phosphorylation of tyrosine residues on proteins >100 kDa in size
[4]; 10 mg/kg I.V., serum, anti-his ELISA
  half-life in the blood: approximately 70 minutes
[4]; after I.V. administration
  protein integrity in plasma (western blot): no observed protein degradation or cleavage
